Experimental data as given in article doi:10.1101/2023.05.08.539884 (bioRxiv, 2023).
“And” between values parts separate entries of the source, which are not always exact repeats. Identical values can stand only once.

Molecular target: UBE2A (UniProt P49459 1-152)
Assay: ITC

Kd: 2800 nM and 2580 nM
B1: UBR4_(4730-5183) (domain or fragment)
chain: AIQHPGTQVLIGTDSIPNLHKLEQVSSDEGIGTLAENLLEALREHPDVNKKIDAARRETRAEKKRMAMAMRQKALGTLGMTTNEKGQVVTKTALLKQMEELIEEPGLTCCICREGYKFQPTKVLGIYTFTKRVALEEMENKPRKQQGYSTVSHFNIVHYDCHLAAVRLARGREEWESAALQNANTKCNGLLPVWGPHVPESAFATCLARHNTYLQECTGQREPTYQLNIHDIKLLFLRFAMEQSFSADTGGGGRESNIHLIPYIIHTVLYVLNTTRATSREEKNLQGFLEQPKEKWVESAFEVDGPYYFTVLALHILPPEQWRATRVEILRRLLVTSQARAVAPGGATRLTDKAVKDYSAYRSSLLFWALVDLIYNMFKKVPTSNTEGGWSCSLAEYIRHNDMPIYEAADKALKTFQEEFMPVETFSEFLDVAGLLSEITDPESFLKDLLNSVP
